Measurements: patent US20210147812A1, “Method of Preparing Cancer Spheroid and Method of Selecting Colorectal Cancer Patient” (Kyo Diagnostics K.K., priority 2017, published 2021)

System: CRC-TIC spheroid lines that carried wild-type RAS/RAF genes (HC6T, HC9T, HC11T, HC21T)
Experiment: Stimulation of spheroid growth with EGF and/or bFGF, luminescence-based growth monitoring (GEI)
Assay type: cell-based, human
Conditions: HC11T
Description: Luminescence was determined daily or 3 days later. The cell growth rate for each well was estimated as the proportion of photon counts to those on day 1. Four or six replicates (with similar statistical power) were analyzed for each data point in all experiments except for the chemical compound screening assays.
To investigate whether EGF and bFGF helped spheroid proliferation in the cancer medium as described above, we cultured with EGF and/or bFGF four slow-growing CRC-TIC spheroid lines that carried wild-type RAS/RAF genes (HC6T, HC9T, HC11T, HC21T). Because EGF/bFGF facilitated the growths of these spheroid lines substantially (FIG. 3A), we then quantified their effects by the luminescence-based growth monitoring. To calibrate the effects, we introduced the growth effect index (GEI) defined as the relative growth rate of a treated group to that of its solvent-only control in each paired assay. […] The extents of growth promotion by EGF and bFGF were different depending on the spheroid line. […] In another spheroid line (HC21T), the effects were similar between the two growth factors (FIG. 3B).

B1: EGF: epidermal growth factor, recombinant human protein (protein, UniProt P01133 23-1207, looked up)
Pro-epidermal growth factor: PQHWSCPEGTLAGNGNSTCVGPAPFLIFSHGNSIFRIDTEGTNYEQLVVDAGVSVIMDFHYNEKRIYWVDLERQLLQRVFLNGSRQERVCNIEKNVSGMAINWINEEVIWSNQQEGIITVTDMKGNNSHILLSALKYPANVAVDPVERFIFWSSEVAGSLYRADLDGVGVKALLETSEKITAVSLDVLDKRLFWIQYNREGSNSLICSCDYDGGSVHISKHPTQHNLFAMSLFGDRIFYSTWKMKTIWIANKHTGKDMVRINLHSSFVPLGELKVVHPLAQPKAEDDTWEPEQKLCKLRKGNCSSTVCGQDLQSHLCMCAEGYALSRDRKYCEDVNECAFWNHGCTLGCKNTPGSYYCTCPVGFVLLPDGKRCHQLVSCPRNVSECSHDCVLTSEGPLCFCPEGSVLERDGKTCSGCSSPDNGGCSQLCVPLSPVSWECDCFPGYDLQLDEKSCAASGPQPFLLFANSQDIRHMHFDGTDYGTLLSQQMGMVYALDHDPVENKIYFAHTALKWIERANMDGSQRERLIEEGVDVPEGLAVDWIGRRFYWTDRGKSLIGRSDLNGKRSKIITKENISQPRGIAVHPMAKRLFWTDTGINPRIESSSLQGLGRLVIASSDLIWPSGITIDFLTDKLYWCDAKQSVIEMANLDGSKRRRLTQNDVGHPFAVAVFEDYVWFSDWAMPSVMRVNKRTGKDRVRLQGSMLKPSSLVVVHPLAKPGADPCLYQNGGCEHICKKRLGTAWCSCREGFMKASDGKTCLALDGHQLLAGGEVDLKNQVTPLDILSKTRVSEDNITESQHMLVAEIMVSDQDDCAPVGCSMYARCISEGEDATCQCLKGFAGDGKLCSDIDECEMGVPVCPPASSKCINTEGGYVCRCSEGYQGDGIHCLDIDECQLGEHSCGENASCTNTEGGYTCMCAGRLSEPGLICPDSTPPPHLREDDHHYSVRNSDSECPLSHDGYCLHDGVCMYIEALDKYACNCVVGYIGERCQYRDLKWWELRHAGHGQQQKVIVVAVCVVVLVMLLLLSLWGAHYYRTQKLLSKNPKNPYEESSRDVRSRRPADTEDGMSSCPQPWFVVIKEHQDLKNGGQPVAGEDGQAADGSMQPTSWRQEPQLCGMGTEQGCWIPVSSDKGSCPQVMERSFHMPSYGTQTLEGGVEKPHSLLSANPLWQQRALDPPHQMELTQ
modifications: Pro-epidermal growth factor
notes: epidermal growth factor, recombinant human protein
extent of growth promotion, bFGF versus EGF: vice versa
